“Also recorded” adds a separate entry of the source.
B1: NcatNOR15: candidate nepetalactol oxidoreductase (NOR) from Nepeta cataria, protein SEQ ID NO: 561 (protein, listed as Nepeta cataria)
chain: MAKTPETEHPVKAFGYAATDNSGTFSPFKFSRRATGERDVQFKVLYCGVCHSDLHMVKNEWGVTHYPIVPGHEIVGVATEVGSKVEKVKVGDKVGVGVIVGSCRQCDQCSNDLENYCSKQILTYGAPYLDGTITRGGYSDIMVADEHFIIRWPENFPLDAGAPLLCAGITTYSPLRYFGLDKPGLRVGVNGLGGLGHVAVKFAKAFGTKVTVISSSLRKKKEAVEKLGVDEFLVSTDPEQMQAAIGTLDGIIDTVSAEHSVVSLLSLLKPHGRLIVVGAPEKPHQLPAFPLITGRKSISGSAIGGMKETQEMIDFAAKHNILPDVEVIPIDYINTAMERLLKSDVKYRFVIDVEKSLKA
B2: NcatNOR21: candidate nepetalactol oxidoreductase (NOR) from Nepeta cataria, protein SEQ ID NO: 566 (protein, listed as Nepeta cataria)
chain: MAKSVNAVGWAARDTSGLLSPLKFARPAAGDRDVQFKVLYCGICHSDLHSIKNEWGNTQYPIVPGHEIVGVVTAVGPKATKFKAGDKVGVGCLVNSCRHCDQCAADLENYCPQLVQTYNSVLADGSVTYGGYSDVMTADEDFVIRWPENFPMDKGAPLLCAGVTTYSPLRYYGLDKPGLHIGVVGLGGLGHVAVKFAKAFGMKVTVISTSAGKKKEAIETLGADAFLISRDASEMQAAAGTLDGMIDTVSAQHPLPPLLSLLKPHGKLILVGAPEKPFELPAFPLLMGRKTVAGSVIGGLKETQEMIDFAAKHNLLPEVEMIPMDYVNTAMERLAKADVKYRFVIDVGNTLTKAD
B3: NcatNOR34: candidate nepetalactol oxidoreductase (NOR) from Nepeta cataria, protein SEQ ID NO: 578 (protein, listed as Nepeta cataria)
chain: MAFCRSSLLLRKALGGSRRAAAAATCSSAYACGWQSERGRWYSGGEGTTISAPGYHVNTAPSHMTGAVFWDKDKPITYEEFEMPRPKANEVLIKTKACGACHSDLHVIKGDLKFPCPCILGHEITGEVVEHGPLTETKYIERYPVGSKVIGAFIMPCGSCFYCSRGEDDLCEPYFAYNRAKGTLYDGQTRLFLRGSGKPVHMWSMSGLAEYCVTPVNGLGALPDTLPYAESSVLGCAVFTAYGAIAHAAEVKPGNSVAVIGIGGVGSSCLQIAKAFGASEIIAVDVEDGKLETAKTFGATHIINSRKEDAIAKIKELTDGRGVDIAVEAIGGPKTFAQCVGSVRAGGKAVMIGLSPTGGKGEVEITQLVRRKVKVIGSYGGRAMTDLPKLVELAEQGTFNLEAAVTRRYKFEEVAQAYQDLQNKTIVGRGVIEIM
B4: GAR_NOR15: NOR candidate (SEQ ID NO: 1393) expressed in Saccharomyces cerevisiae from pESC-URA (protein)
chain: MADKEGEVVCVTGGSGFIGSWLVSLLLRRGYSVRATVKNLGDERETKHLEAIEGADSRLSLFQIDLLDYDSVATAVGDAAGVFHLASPCTIDQVNDPQRELLDPAIKGTLNVLKAAKNLGVRRVVVTSSISAMIASSNSLAETGEDCWIDEDYCRQNGLWYPVSKALAEKAAWKLAEENGLDIVVVNPGMVVGPILPPALNSSMQLMLHVLQGKDFFEGFFMGLVHVKDVALAQILLYENTSASGRHLCVESLSRYDDFAKQMEKLYPEYKLPRFSNNAQHGSLKSDAALKKLRDLGIEFAPLEQIVKDSIESLRSKGYIS
modifications: Nepeta cataria or Nepeta mussinii

Key:
[1] = test system: nepetalactol; assay: In vitro characterization of NOR candidates: conversion of nepetalactol to nepetalactone in clarified E. coli cell lysate (GC-MS); type: biochemical, Escherichia coli; settings: NAD+ or NADP+, 30° C., 2 hours
Method: The plasmids were individually transformed into chemically competent BL21 (DE3) cells. pUC19 was also transformed into BL21 (DE3) to produce a strain that could serve as a negative control. Transformants were selected and grown overnight with shaking in LB medium containing kanamycin. Glycerol stocks were prepared by mixing overnight culture with 50% glycerol in a 1:1 ratio. Glycerol stocks were frozen at −80° C.
BL21 (DE3) strains were streaked out on LB plates containing kanamycin from glycerol stock and grown overnight at 37° C. A single colony was inoculated into 4 mL of LB medium containing kanamycin in 15 mL disposable culture tubes and incubated overnight at 30° C. with shaking at 250 rpm. 500 μL of the overnight culture was subcultured into 50 mL of LB medium containing kanamycin in a 250 mL baffled flask. The culture was grown at 37° C. and the optical density at 600 nm (OD600) was monitored. When OD600 reached between 0.6-1, the cultures were cooled on ice for 15 minutes. The cultures were then induced with 100 μM of isopropyl β-D-1-thiogalactopyranoside and incubated at 15° C. with shaking at 250 rpm for roughly 20 hours. Cultures were pelleted by centrifugation in 50 mL centrifuge tubes. The supernatant was decanted and the pellets were frozen at −20° C. for later processing.
Pellets were thawed on ice and resuspended with 3 mL of cold lysis buffer: 50 mM sodium phosphate, pH=7.4, 100 mM sodium chloride. All remaining steps were performed either on ice or at 4° C. The cell mixture was transferred to a 15 mL centrifuge tube and disrupted with three rounds of sonication using the Branson Sonitier 450 with a double-level microtip at 70% amplitude. A single round of sonication consisted of 6 cycles of 10 seconds with the sonicator on, and 10 seconds off Between each round, the cell mixture was allowed to sit on ice for a minute to cool. The lysed cell mixture was transferred to 1.7 mL centrifuge tubes and centrifuged at maximum speed in a microcentrifuge for 20 minutes. The supernatant (clarified cell lysate) was collected in a separate tube and used for in vitro characterization.
The in vitro reactions were setup as follows: 2 μL of 100 mM NAD+ or NADP+ and 10 μL of 100 uM nepetalactol was added to 188 μL of the clarified cell lysate. The reactions were incubated at 30° C. shaking at 200 rpm for 2 hours. As a positive control, 2 μL of 100 mM NAD+, 2 μL of 100 mM NADP+ and 10 μL of 100 μM nepetalactone was added to 186 μL of clarified lysate from a strain harboring pUC 19 and incubated for 1 hr. The reactions were extracted with one volume of ethyl acetate. The organic layer was withdrawn and analyzed with gas chromatography coupled to mass spectrometry (GC-MS). Authentic standards were run to confirm identities of analytes.

[2] = test system: nepetalactol; assay: Production of nepetalactone from fed nepetalactol in Saccharomyces cerevisiae strains expressing NOR candidates from pESC-URA; type: cell-based; settings: 100 mg/L nepetalactol, 2% galactose, 24 hours
Method: The plasmids were individually transformed into chemically competent Saccharomyces cerevisiae cells as described in EXAMPLE 2. Transformants were selected on SD-URA agar plates. Three to four replicates were picked into SD-URA liquid medium and cultured at 30° C. for one to two days with shaking at 1000 rpm. Cultures were glycerol stocked at a final concentration of 16.6% glycerol and stored at −80° C. until later use.
10 μL of the glycerol stocked strains was inoculated into 300 μL of minimal media lacking uracil, and containing 4% glucose in 96-well plates to produce seed cultures. The plates were incubated at 30° C. at 1000 rpm for 1-2 days. 10 μL of the seed cultures was then inoculated into 300 μL of minimal media lacking uracil, and containing 2% galactose and 100 mg/L of nepetalactol. 30 μL of methyl oleate was next added to the wells. […]
Cell density was determined using a spectrophotometer by measuring the absorbance of each well at 600 nm. […] The plates were shaken for 25 sat 750 rpm immediately before being measured on a Tecan M1 000 spectrophotometer. […] The plates were centrifuged and the ethyl acetate layer was collected and analyzed by liquid chromatography coupled to mass spectrometry (LC-MS). Target analytes were quantified against authentic standards.

Molecule	conversion (oxidation) of nepetalactol to nepetalactone [1]	conversion (oxidation) of nepetalactol to nepetalactone ([1]; listed as NcatNORI5)	nepetalactone produced [2] [mg/L]
B1	can convert nepetalactol to nepetalactone	can oxidize nepetalactol to nepetalactone	–
B2	can convert nepetalactol to nepetalactone; also recorded: can oxidize nepetalactol to nepetalactone	–	–
B3	can convert nepetalactol to nepetalactone; also recorded: can oxidize nepetalactol to nepetalactone	–	–
B4	–	–	93

Source: US20220356497A1, “COMPOSITIONS AND METHODS FOR SYNTHESIS OF TERPENOIDS” (Zymergen Inc., priority 2019, published 2022)
